The values below are quoted from earlier work in PMC10086210.

This data set concerns the target PD-L1 (Homo sapiens) (UniProt Q9NZQ7).
Sequence of UniProt Q9NZQ7 (Q9NZQ7 19-238): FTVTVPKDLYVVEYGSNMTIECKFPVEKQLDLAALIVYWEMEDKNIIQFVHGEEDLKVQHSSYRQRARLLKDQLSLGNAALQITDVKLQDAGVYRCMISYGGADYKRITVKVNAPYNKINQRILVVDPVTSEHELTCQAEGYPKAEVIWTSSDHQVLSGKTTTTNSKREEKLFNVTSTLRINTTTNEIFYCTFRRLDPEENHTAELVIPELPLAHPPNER

Broadly, the Kd is the constant that tells how readily two partners part at equilibrium. Regarding DPPA-1, the Kd is 510 nM.
